Assay results: publication PMC5714209

Molecular target: APOBEC3G (human), Q9HC16
Test: SEC
Conditions: remark: other sources report otherwise

stoichiometry N: 2
B1: APOBEC3G, Q9HC16 1-384 (enzyme)
chain: MKPHFRNTVERMYRDTFSYNFYNRPILSRRNTVWLCYEVKTKGPSRPPLDAKIFRGQVYSELKYHPEMRFFHWFSKWRKLHRDQEYEVTWYISWSPCTKCTRDMATFLAEDPKVTLTIFVARLYYFWDPDYQEALRSLCQKRDGPRATMKIMNYDEFQHCWSKFVYSQRELFEPWNNLPKYYILLHIMLGEILRHSMDPPTFTFNFNNEPWVRGRHETYLCYEVERMHNDTWVLLNQRRGFLCNQAPHKHGFLEGRHAELCFLDVIPFWKLDLDQDYRVTCFTSWSPCFSCAQEMAKFISKNKHVSLCIFTARIYDDQGRCQEGLRTLAEAGAKISIMTYSEFKHCWDTFVDHQGCPFQPWDGLDEHSQDLSGRLRAILQNQEN
